From the Human Domainome abundance scans (Beltran et al. 2025)
± gives the uncertainty stated by the source.

B1: Storkhead-box protein 2, residues 64 to 141; numbered along this chain, Q9P2F5 (parent)
chain: SPISQSQFIPLGEILCLAISAMNSARKPVTQEALMEHLTTCFPGVPTPSQEILRHTLNTLVRERKIYPTPDGYFIVTP

Variants of: B1
Assay: abundance fitness (aPCA) (normalised: wild type 0, dead -1); higher = more abundant; growth selection in yeast, the domain comes from the species named
Settings: Homo sapiens

Abundance fitness of substitutions, site by site:
L11: N -0.466 ± 0.21, P -0.299 ± 0.074, Q -0.32 ± 0.095, R -0.428 ± 0.05, S -0.396 ± 0.056, T -0.278 ± 0.082, V -0.163 ± 0.064, W -0.418 ± 0.076, Y -0.008 ± 0.1
G12: A -0.3 ± 0.29, C -0.135 ± 0.32, D -0.127 ± 0.33, V -0.452 ± 0.2
E13: C -0.152 ± 0.081, D -0.001 ± 0.11, F -0.349 ± 0.081, G -0.009 ± 0.042, H -0.061 ± 0.16, K -0.039 ± 0.1, L -0.34 ± 0.05, M -0.206 ± 0.1, N 0.02 ± 0.11, P -0.059 ± 0.085, Q 0.021 ± 0.067, R 0.078 ± 0.046, S -0.039 ± 0.057, T -0.016 ± 0.082, V -0.241 ± 0.05, W -0.331 ± 0.068
I14: A -0.003 ± 0.057, C -0.109 ± 0.17, D -0.258 ± 0.41, E -0.089 ± 0.11, F -0.228 ± 0.092, G -0.097 ± 0.059, H 0.033 ± 0.28, K -0.039 ± 0.2, L -0.035 ± 0.067, M 0.024 ± 0.15, N -0.384 ± 0.16, P -0.032 ± 0.085, Q -0.118 ± 0.13, R -0.073 ± 0.059, S 0.01 ± 0.057, T -0.034 ± 0.063, V -0.031 ± 0.068, W -0.105 ± 0.079, Y -0.108 ± 0.14
L15: A -0.034 ± 0.15, E -0.67 ± 0.12, G -1.06 ± 0.13, H -0.796 ± 0.31, I -0.061 ± 0.097, K -0.572 ± 0.15, M -0.049 ± 0.075, N -0.613 ± 0.32, P -0.983 ± 0.098, Q -1.03 ± 0.15, R -0.977 ± 0.079, S -0.235 ± 0.042, T 0.059 ± 0.048, V 0.039 ± 0.061, Y -0.252 ± 0.11
C16: A -0.197 ± 0.069, D -0.353 ± 0.084, E -0.148 ± 0.087, F -0.074 ± 0.11, G -0.249 ± 0.033, I -0.01 ± 0.1, K -0.155 ± 0.12, L -0.019 ± 0.041, M -0.04 ± 0.088, N -0.08 ± 0.13, P -0.124 ± 0.098, Q 0.072 ± 0.19, R -0.061 ± 0.051, S -0.091 ± 0.06, T -0.027 ± 0.097, V -0.074 ± 0.051, W -0.052 ± 0.076, Y -0.021 ± 0.079
L17: A 0.005 ± 0.04, C -0.116 ± 0.074, D -0.069 ± 0.081, E 0.039 ± 0.059, F -0.096 ± 0.093, G -0.016 ± 0.036, H 0.034 ± 0.11, I 0.133 ± 0.2, M -0.041 ± 0.07, N 0.079 ± 0.087, P -0.092 ± 0.052, S 0.008 ± 0.042, T 0.043 ± 0.066, V -0.059 ± 0.043, W -0.129 ± 0.05
A18: C -0.001 ± 0.076, D -1.1 ± 0.38, E -0.102 ± 0.081, F -0.446 ± 0.098, G -0.095 ± 0.048, H -0.125 ± 0.16, I -0.308 ± 0.16, K -0.282 ± 0.11, M -0.593 ± 0.17, N -0.376 ± 0.21, P -0.887 ± 0.1, Q -0.26 ± 0.13, R -0.148 ± 0.049, S -0.197 ± 0.066, T -0.099 ± 0.081, V -0.163 ± 0.062, W -0.496 ± 0.062
I19: A -0.341 ± 0.055, C -0.21 ± 0.067, E -1 ± 0.15, F -0.317 ± 0.15, G -1.07 ± 0.12, H -0.852 ± 0.44, L -0.23 ± 0.047, P -0.948 ± 0.12, Q -1.15 ± 0.21, R -1.01 ± 0.088, S -0.823 ± 0.062, T -0.224 ± 0.06, V -0.154 ± 0.051, W -0.825 ± 0.06, Y -1.26 ± 0.33
S20: A -0.104 ± 0.039, D -0.116 ± 0.17, E -0.022 ± 0.069, G -0.039 ± 0.037, H -0.219 ± 0.12, I -0.359 ± 0.099, K 0.018 ± 0.075, L -0.172 ± 0.024, M -0.115 ± 0.067, N 0.076 ± 0.16, P -0.405 ± 0.074, Q 0.019 ± 0.087, R -0.025 ± 0.04, T -0.006 ± 0.06, V -0.171 ± 0.044, W -0.419 ± 0.053, Y -0.181 ± 0.096
A21: C -0.137 ± 0.07, D 0.002 ± 0.079, F -0.212 ± 0.091, G -0.063 ± 0.047, H -0.181 ± 0.17, I -0.24 ± 0.18, K 0.051 ± 0.046, L -0.305 ± 0.051, M -0.235 ± 0.079, N 0.235 ± 0.16, P -0.774 ± 0.072, Q 0.002 ± 0.073, R -0.019 ± 0.051, S 0.062 ± 0.052, T -0.086 ± 0.089, V -0.167 ± 0.048, W -0.244 ± 0.091, Y 0.056 ± 0.097
M22: A -0.234 ± 0.074, C -0.114 ± 0.08, D -0.515 ± 0.29, E -0.719 ± 0.25
